Here are results for two molecules from article PMC10397247.

For one experiment, the target named is T1, APC8401-AA.
T1 chain: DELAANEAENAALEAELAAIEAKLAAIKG
Nature of the experiment: two-hybrid library CCmax.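 Also: natural log of median RNA to DNA barcode read ratio; higher means stronger binding.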 The conditions noted are these: mean of both orientations.

A further experiment addresses T2, APC9182-AA.
T2 chain: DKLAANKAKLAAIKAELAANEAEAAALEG
Nature of the experiment: two-hybrid library CCmax.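 Also: natural log of median RNA to DNA barcode read ratio; higher means stronger binding.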 The conditions noted are these: mean of both orientations.

The target in another experiment is T3, APC9291-AA.
T3 chain: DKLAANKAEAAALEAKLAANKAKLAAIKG
Nature of the experiment: two-hybrid library CCmax.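 Also: natural log of median RNA to DNA barcode read ratio; higher means stronger binding.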 The conditions noted are these: mean of both orientations.

In a further experiment the target is T4, APC2474-AA.
T4 chain: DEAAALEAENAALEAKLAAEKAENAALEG
Briefly: two-hybrid library CCmax.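 Also: natural log of median RNA to DNA barcode read ratio; higher means stronger binding.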

In a further experiment the target is T5, APC2556-AA.
T5 chain: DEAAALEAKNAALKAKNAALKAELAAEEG
Nature of the experiment: two-hybrid library CCmax.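 Also: natural log of median RNA to DNA barcode read ratio; higher means stronger binding.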 The conditions noted are these: mean of both orientations.

A further experiment concerns the target T6, APC3881-AA.
T6 chain: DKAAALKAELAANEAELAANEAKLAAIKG
Nature of the experiment: two-hybrid library CCmax.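 Also: natural log of median RNA to DNA barcode read ratio; higher means stronger binding.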 The conditions noted are these: mean of both orientations.

The next experiment concerns the target T7, APC3265-AA.
T7 chain: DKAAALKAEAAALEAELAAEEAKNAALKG
Nature of the experiment: two-hybrid library CCmax. The conditions noted are these: mean of both orientations.

For another experiment, the target named is T8, APC2375-AA.
T8 chain: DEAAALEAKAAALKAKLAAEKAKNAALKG
Nature of the experiment: two-hybrid library CCmax. The conditions noted are these: mean of both orientations.

The target in another experiment is T9, APC2811-AA.
T9 chain: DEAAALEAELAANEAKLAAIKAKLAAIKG
Nature of the experiment: two-hybrid library CCmax. The conditions noted are these: mean of both orientations.

Another experiment deals with T10, APC222-AA.
T10 chain: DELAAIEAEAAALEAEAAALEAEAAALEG
Briefly: two-hybrid library CCmax.

For another experiment, the target named is T11, APC2257-AA.
T11 chain: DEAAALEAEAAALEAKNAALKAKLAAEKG
Briefly: two-hybrid library CCmax. The conditions noted are these: mean of both orientations.

The target of the next experiment is T12, APC2543-AA.
T12 chain: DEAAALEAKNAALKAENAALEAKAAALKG
Nature of the experiment: two-hybrid library CCmax. The conditions noted are these: mean of both orientations.

Another experiment concerns the target T13, APC7524-AA.
T13 chain: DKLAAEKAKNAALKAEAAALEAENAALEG
Briefly: two-hybrid library CCmax. The conditions noted are these: mean of both orientations.

In a further experiment the target is T14, APC5531-AA.
T14 chain: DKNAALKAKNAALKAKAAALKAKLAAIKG
Nature of the experiment: two-hybrid library CCmax.

For a further experiment, the target named is T15, APC2724-AA.
T15 chain: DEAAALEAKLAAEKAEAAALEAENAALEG
Nature of the experiment: two-hybrid library CCmax. The conditions noted are these: mean of both orientations.

Another experiment deals with T16, APC9806-AA.
T16 chain: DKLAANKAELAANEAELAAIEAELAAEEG
Nature of the experiment: two-hybrid library CCmax. The conditions noted are these: mean of both orientations.

For another experiment, the target named is T17, APC5009-AA.
T17 chain: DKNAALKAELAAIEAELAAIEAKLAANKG
Briefly: two-hybrid library CCmax. The conditions noted are these: mean of both orientations.

The target of a further experiment is T18, APC542-AA.
T18 chain: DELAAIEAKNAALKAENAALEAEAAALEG
Briefly: two-hybrid library CCmax.

The target of another experiment is T19, APC4336-AA.
T19 chain: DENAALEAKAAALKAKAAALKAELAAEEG
Nature of the experiment: two-hybrid library CCmax. The conditions noted are these: mean of both orientations.

The next experiment concerns the target T20, APC3354-AA.
T20 chain: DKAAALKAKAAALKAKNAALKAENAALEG
Briefly: two-hybrid library CCmax. The conditions noted are these: mean of both orientations.

A further experiment concerns the target T21, APC9141-AA.
T21 chain: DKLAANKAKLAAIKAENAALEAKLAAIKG
Briefly: two-hybrid library CCmax. The conditions noted are these: mean of both orientations.

The next experiment deals with T22, APC4100-AA.
T22 chain: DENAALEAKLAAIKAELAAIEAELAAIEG
Briefly: two-hybrid library CCmax. The conditions noted are these: mean of both orientations.

The next experiment deals with T23, APC3323-AA.
T23 chain: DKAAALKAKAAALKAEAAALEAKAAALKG
Briefly: two-hybrid library CCmax. The conditions noted are these: mean of both orientations.

A further experiment addresses T24, APC2981-AA.
T24 chain: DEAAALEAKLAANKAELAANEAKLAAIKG
Nature of the experiment: two-hybrid library CCmax. The conditions noted are these: mean of both orientations.

In the next experiment the target is T25, APC6088-AA.
T25 chain: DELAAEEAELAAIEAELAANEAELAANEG
Briefly: two-hybrid library CCmax. The conditions noted are these: mean of both orientations.

The next experiment concerns the target T26, APC8516-AA.
T26 chain: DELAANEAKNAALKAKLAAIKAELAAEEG
Briefly: two-hybrid library CCmax.

The next experiment addresses T27, P5bHq.
T27 chain: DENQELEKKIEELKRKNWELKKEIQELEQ
Nature of the experiment: two-hybrid library CCNG1.

The target of a further experiment is T28, P7bHq.
T28 chain: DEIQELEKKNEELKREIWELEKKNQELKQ
Nature of the experiment: two-hybrid library CCNG1.

The next experiment deals with T29, P8bHq.
T29 chain: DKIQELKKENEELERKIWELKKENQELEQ
Nature of the experiment: two-hybrid library CCNG1.

The target in the next experiment is T30, P9bHq.
T30 chain: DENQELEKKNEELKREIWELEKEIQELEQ
Briefly: two-hybrid library CCNG1.

The target of a further experiment is T31, P4bHq.
T31 chain: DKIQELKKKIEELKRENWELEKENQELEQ
Briefly: two-hybrid library CCNG1.

In a further experiment the target is T32, P6bHq.
T32 chain: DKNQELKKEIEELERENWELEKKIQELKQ
Nature of the experiment: two-hybrid library CCNG1.

The target of another experiment is T33, P2bHq.
T33 chain: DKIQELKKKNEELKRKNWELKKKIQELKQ
Briefly: two-hybrid library CCNG1.

Take DELAAIEAEAAALEAEAAALEAEAAALEG [APC222-AA]: the interaction score with APC8401-AA is -1.94; in the experiment with APC9182-AA, -1.69; with APC9291-AA, -1.82; in the experiment with APC2474-AA, -1.83; with APC2556-AA it was -2.32; with APC3881-AA it was -1.61. Moreover, the interaction score with APC3265-AA was -1.62; with APC2375-AA, -1.53; with APC2811-AA, -1.59; with APC222-AA, -2.62; with APC2257-AA it was -1.71; in the experiment with APC2543-AA, -1.8. Further, the interaction score with APC7524-AA was -2.39; with APC5531-AA, -1.91; with APC2724-AA it was -2.15; with APC9806-AA, -1.68; in the experiment with APC5009-AA it was -2.08; with APC542-AA, -1.23. In addition, the interaction score with APC4336-AA is -1.82; with APC3354-AA it was -1.41; with APC9141-AA, -1.74; with APC4100-AA, -1.75; in the experiment with APC3323-AA it was -0.292; in the experiment with APC2981-AA, -1.93. In addition, the interaction score is -1.62 with APC6088-AA and -1.79 in the experiment with APC8516-AA.
On to DKIQELKKKNEELKRKNWELKKKIQELKQ [P2bHq], for which the interaction score with P5bHq was 0.419; with P7bHq, 0.668; in the experiment with P8bHq, 0.361; with P9bHq, -1.74; in the experiment with P4bHq, 0.0617; with P6bHq, 1.33. For the same molecule, the interaction score with P2bHq was 0.693.
